Measurements from patent US20160297892A1 (Novo Nordisk, published 2016).
One block for each binder: values may come before it.

Columns and labels:
[1] = biological target: T1, EGF domain 3 and 4 of recombinant human Protein S (human, UniProt P07225 201-286, limits assumed); assay: ELISA, calcium-free TBS;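 note: binding of mouse antibodies detected by ELISA with an HRP-conjugated goat anti-mouse IgG secondary and TMB substrate development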
T1 construct: domain: EGF domain 3 and 4; also called hEGF3-4
T1 sequence (looked up): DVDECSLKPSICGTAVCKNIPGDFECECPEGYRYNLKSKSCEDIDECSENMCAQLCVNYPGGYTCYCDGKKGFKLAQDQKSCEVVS
Method: (§1) After incubation and washing a HRP-labelled goat-anti-mouse IgG secondary antibody (Jackson) was added and the ELISA was developed after incubation and wash by addition of 3,3′,5,5′-Tetramethylbenzidine.

[2] = biological target: T2, human Protein S (plasma derived) (human, UniProt P07225 42-676); assay: ELISA, recombinant antibody
T2 construct: Bought plasma-derived human Protein S (Haematologic Technologies or Enzyme Research Laboratories); also called Plasma PS; free Protein S
T2 sequence: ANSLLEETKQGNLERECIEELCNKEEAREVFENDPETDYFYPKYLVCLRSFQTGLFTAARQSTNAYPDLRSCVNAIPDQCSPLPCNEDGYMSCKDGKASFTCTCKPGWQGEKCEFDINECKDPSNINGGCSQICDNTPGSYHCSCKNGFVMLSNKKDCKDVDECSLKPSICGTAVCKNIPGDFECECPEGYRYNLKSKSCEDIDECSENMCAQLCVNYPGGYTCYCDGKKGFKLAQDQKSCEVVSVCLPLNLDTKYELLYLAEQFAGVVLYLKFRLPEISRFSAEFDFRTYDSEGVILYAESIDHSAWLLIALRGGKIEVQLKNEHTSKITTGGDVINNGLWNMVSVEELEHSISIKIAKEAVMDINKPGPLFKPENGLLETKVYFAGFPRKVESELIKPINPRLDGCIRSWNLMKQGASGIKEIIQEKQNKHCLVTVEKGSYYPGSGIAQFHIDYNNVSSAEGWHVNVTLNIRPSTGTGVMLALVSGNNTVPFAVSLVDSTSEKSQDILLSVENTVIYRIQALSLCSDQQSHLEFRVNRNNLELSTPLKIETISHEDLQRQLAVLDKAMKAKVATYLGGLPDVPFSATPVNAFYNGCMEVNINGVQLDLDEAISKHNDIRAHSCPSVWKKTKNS

[3] = biological target: T3, EGF1-4 domains of human Protein S with C-terminal HPC4 tag (human, UniProt P07225 114-286, partial hydroxylation of Asn or Asp in the EGF domains (detected by MS)); assay: ELISA, recombinant antibody
T3 construct: also called hEGF1-4; human Protein S EGF1-4
T3 sequence: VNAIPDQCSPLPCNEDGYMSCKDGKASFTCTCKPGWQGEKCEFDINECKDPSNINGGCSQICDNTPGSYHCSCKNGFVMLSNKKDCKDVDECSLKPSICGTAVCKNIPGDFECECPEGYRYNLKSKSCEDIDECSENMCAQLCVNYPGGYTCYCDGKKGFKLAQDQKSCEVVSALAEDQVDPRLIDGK

[4] = biological target: T4, Gla-domain deleted recombinant human Protein S (human, UniProt P07225 114-676); assay: ELISA, recombinant antibody
T4 construct: also called hPS-dGla; desGla human Protein S
T4 sequence: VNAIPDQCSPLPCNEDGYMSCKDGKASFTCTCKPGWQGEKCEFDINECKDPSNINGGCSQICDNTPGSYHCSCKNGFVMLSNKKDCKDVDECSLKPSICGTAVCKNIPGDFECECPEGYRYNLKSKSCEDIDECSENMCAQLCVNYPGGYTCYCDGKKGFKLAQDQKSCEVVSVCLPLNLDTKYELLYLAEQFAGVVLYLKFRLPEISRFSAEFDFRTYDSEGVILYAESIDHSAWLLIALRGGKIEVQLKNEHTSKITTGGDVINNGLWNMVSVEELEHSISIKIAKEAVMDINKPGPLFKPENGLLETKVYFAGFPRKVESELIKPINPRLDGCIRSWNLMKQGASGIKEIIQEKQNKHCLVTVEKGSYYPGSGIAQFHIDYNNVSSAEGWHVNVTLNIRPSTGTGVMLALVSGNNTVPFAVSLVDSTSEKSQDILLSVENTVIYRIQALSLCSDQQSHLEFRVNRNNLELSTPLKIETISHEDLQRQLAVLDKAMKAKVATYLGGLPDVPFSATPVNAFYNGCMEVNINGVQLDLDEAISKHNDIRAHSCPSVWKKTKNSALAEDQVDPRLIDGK

[5] = biological target: T2, human Protein S (plasma derived); assay: ELISA, calcium-free TBS;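 note: binding of mouse antibodies detected by ELISA with an HRP-conjugated goat anti-mouse IgG secondary and TMB substrate development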
Method: as §1

[6] = biological target: T3, EGF1-4 domains of human Protein S with …; assay: ELISA, calcium-free TBS;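 note: binding of mouse antibodies detected by ELISA with an HRP-conjugated goat anti-mouse IgG secondary and TMB substrate development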
Method: as §1

[7] = biological target: T4, Gla-domain deleted recombinant human …; assay: ELISA, calcium-free TBS;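 note: binding of mouse antibodies detected by ELISA with an HRP-conjugated goat anti-mouse IgG secondary and TMB substrate development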
Method: as §1

[8] = biological target: T1, EGF domain 3 and 4 of recombinant human …; assay: ELISA, recombinant antibody
[9] = biological target: T5, EGF domain 1 and 2 of recombinant human Protein S (human, UniProt P07225 114-200, limits assumed); assay: ELISA, calcium-free TBS
T5 construct: domain: EGF domain 1 and 2; also called hEGF1-2
T5 sequence (looked up): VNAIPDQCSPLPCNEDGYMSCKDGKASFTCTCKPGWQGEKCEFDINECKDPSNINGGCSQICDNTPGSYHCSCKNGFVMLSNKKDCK
Method: as §1

[10] = biological target: T3, EGF1-4 domains of human Protein S with …; assay: HX-MS, 4 uM EGF1-4 with 2.4 uM mAb
Method: The HX experiments were performed on a nanoACQUITY UPLC System with HDX Technology (Waters Inc.) coupled to a Synapt G2 mass spectrometer (Waters Inc.). The Waters HDX system contained a Leap robot (H/D-x PAL; Waters Inc.) operated by the LeapShell software (Leap Technologies Inc/Waters Inc.), which performed initiation of the deuterium exchange reaction, reaction time control, quench reaction, injection onto the UPLC system and digestion time control. The Leap robot was equipped with two temperature controlled stacks maintained at 20° C. for buffer storage and HX reactions and maintained at 2° C. for storage of protein and quench solution, respectively. The Waters HDX system furthermore contained a temperature controlled chamber holding the pre- and analytical columns, and the LC tubing and switching valves at 0.5° C. A separately temperature controlled chamber holds the pepsin column at 25° C. […] The resulting peptides were trapped and desalted on a VanGuard pre-column BEH C18 1.7 μm (2.1×5 mm (Waters Inc.)). Subsequently, the valves were switched to place the pre-column inline with the analytical column, UPLC-BEH C18 1.7 μm (1×100 mm (Waters Inc.)), and the peptides separated using a 9 min gradient of 10-50% B delivered at 40 μl/min from the nanoAQUITY UPLC system (Waters Inc.). The mobile phases consisted of A: 0.1% formic acid and B: 0.1% formic acid in CH₃CN. […]

[11] = biological target: T2, human Protein S (plasma derived); assay: SPR (Biacore 3000), Protein S captured on phosphatidylserine vesicles on L1 chip, mAb 250 nM

binding result [1]: no binding
binding result [2]: binds
binding result [3]: binds
binding result [4]: binds
B1: M-hProtS-6F138A3 monoclonal antibody (antibody, V domains shown)
VH: QVHLKESGPGLVAPSQNLSITCTVSGFSLTGYGVSWVRQPPGKGLEWLGMIWGDGTTDYNSTLKSRLSISKDNSKSQVFLKMNSLQIDDTARYYCARDPGAMDYWGQGTSVTVSS
VL: QIVLTQSPAIMSASPGEKVTITCSATSSVTYMHWFQQKPGTSPKLWIFSTSNLASGVPPRFSGSGSGTSYSLTISRMEAEDAATYYCQQRSSYPPTFGGGTKLEIKR
notes: Mouse IgG1, kappa; also called 6F138A1/A3

binding result [5]: binds
binding result [6]: binds
binding result [7]: binds
binding result [8]: no binding
B2: M-hProtS-3F2A1 monoclonal antibody (antibody, V domains shown)
VH: EVQLQESGPSLVKPSQTLSLTCSVTGDSITSGYWNWIRKFPGNKLEYMGYISFSGSTYYNPSLKSRISITRDTSKNQYYLQLNSVTTEDTATYYCAREFAYWGQGTLVTVSA
VL: DIVLTQSPATLSVTPGDSVSLSCRASQSISNNLHWYQQKSHESPRLLIKFVSQSISGIPSRFSGSGSGTDFTLSINSVETEDFGMYFCQQSNSWPWTFGGGTKLEIKR
notes: Mouse IgG1, kappa

binding result [5]: binds
binding result [6]: binds
binding result [7]: binds
binding result [8]: no binding
B3: M-hProtS-2F82A1 monoclonal antibody (antibody, V domains shown)
VH: QVQLQQPGTELVRPGASVKLSCKASGYTFTSYWMNWVQQRPEQGLEWIGRIDPYDTETHYNQKFEDKAILTVDKSSSTAYMQLSSLTSEDSAVYYCARWAGSSYAMDYWGQGTSVTVSS
VL: QIVLTQSPALMSASPGERVTMTCSASSSVSYMYWYQQKPRSSPKPWIYSTSNLASGVPARFSGSGSGTSYSLTISSMEAEDAATYYCQQWSSNPYTFGGGTKLEIKR
notes: Mouse IgG1, kappa; also called mAb 0017

binding result [9]: no binding
binding result [2]: binds
binding result [3]: binds
binding result [4]: binds
B4: M-hProtS-6F170A2 monoclonal antibody (antibody, V domains shown)
VH: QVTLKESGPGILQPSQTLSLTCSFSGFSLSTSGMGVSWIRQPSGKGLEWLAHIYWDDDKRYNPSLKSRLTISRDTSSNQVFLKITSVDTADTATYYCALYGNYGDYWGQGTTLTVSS
VL: QIVLTQSPAIMSASPGEKVTMTCSASSSVSYMYWYQQKPGSSPRILIYDTSNLASGVPVRFSGSGSGTSYSLTISRMEAEDAATYYCQQWSSYPLTFGAGTKLELKR
notes: Mouse IgG1, kappa

binding result [10]: binds
binding result [11]: binds
B5: 0322-0000-0114 (antibody, V domains shown)
VH: EVKLEESGGGLVQPGGSMKLSCAASGFTFSDAWMDWVRQSPEKGLEWVAEIRSKANNHATYYAESVKGRFTISRDDSKSGVYLQMNSLRPEDTGIYYCTLTTAFLFDYWGQGTTLTVSS
VL: QIALTQSPAIMSASPGEKVTMTCSVSSSVSYMHWYQQKPGSSPRLWIYDTSNLVSGVPGRFSGSGSGTSYSLTLSSMEAEDAATYYCQQYSGYLYTFGGGTKLEIKR
notes: also called murine-human chimeric antibody of 2F4A1

binding result [5]: binds
binding result [6]: binds
binding result [7]: binds
binding result [8]: no binding
B6: M-hProtS-2F4A1 monoclonal antibody (antibody, V domains shown)
VH: B5 VH
VL: B5 VL
notes: Mouse IgG1, kappa
